Publication PMC5465497
Values belong to the substance of their own block, whether it stands above or below them.

Tests used:
[1] = target: SEED Fc-like chain, the other SEED CH3 domain (human); experiment: non-reduced SDS-PAGE with scanning densitometry of co-expressed chains (heterodimerization assay); two Fc-like chains co-transfected at a 1:1 ratio into HEK293-EBNA cells; Protein A-purified preparation; 4-12% gel, Coomassie staining; bands below the 49-kDa marker excluded
Herceptin IgG (human) [2] = experiment: SPR; antibody covalently coupled onto a CM5 sensor chip, Fc receptor extracellular domain injected; HBS-EP+ running buffer; room temperature; steady-state fitting model; no regeneration
[3] = target: KiH (knobs-into-holes) Fc-like chain, second engineered CH3 domain (human); experiment: non-reduced SDS-PAGE with scanning densitometry of co-expressed chains (heterodimerization assay); two Fc-like chains co-transfected at a 1:1 ratio into HEK293-EBNA cells; Protein A-purified preparation; 4-12% gel, Coomassie staining; bands below the 49-kDa marker excluded
[4] = target: MI (CH3) AG/GA Fc-like chain, GA domain (IgG1 CH3 with positions 85.1 and 86 and their set exchanged for IgA CH3 residues) (human); experiment: as above
[5] = target: BEAT 2/3 (A): CH2 γ1 - BEAT CH3 (A) γ3; (B): CH2 γ1 - BEAT CH3 (B) γ1 D84.4Q (human); experiment: SPR; antibody covalently coupled onto a CM5 sensor chip, FcRn injected; HBS-EP+ adjusted to pH 6; room temperature; steady-state fitting model; regeneration with HBS-EP+ pH 7.4
Herceptin IgG (human) [6] = experiment: as above
[7] = target: BEAT 2/3 (A): CH2 γ3 - BEAT CH3 (A) γ3; (B): CH2 γ1 - BEAT CH3 (B) γ1 (human); experiment: as above
[8] = target: BEAT 2/3 (A): CH2 γ3 - BEAT CH3 (A) γ3; (B): CH2 γ1 - BEAT CH3 (B) γ1 D84.4Q (human); experiment: as above
[9] = target: BEAT 2/3 (A): CH2 γ1 - BEAT CH3 (A) γ3; (B): CH2 γ1 - BEAT CH3 (B) γ1 (human); experiment: as above
[10] = target: BEAT 2/3 (A): CH2 γ1 - BEAT CH3 (A) γ3; (B): CH2 γ1 - BEAT CH3 (B) γ1 D84.4Q (human); experiment: SPR; antibody covalently coupled onto a CM5 sensor chip, Fc receptor extracellular domain injected; HBS-EP+ running buffer; room temperature; steady-state fitting model; no regeneration
[11] = target: BEAT 2/3 (A): CH2 γ3 - BEAT CH3 (A) γ3; (B): CH2 γ1 - BEAT CH3 (B) γ1 D84.4Q (human); experiment: as above
[12] = target: BEAT 2/3 (A): CH2 γ1 - BEAT CH3 (A) γ3; (B): CH2 γ1 - BEAT CH3 (B) γ1 (human); experiment: as above
Herceptin IgG (human) [13] = experiment: SPR; antibody captured via Protein A, FcγR1a injected; room temperature; 1:1 Langmuir model with Rmax set to local; regeneration with 10 mM glycine pH 1.5

Substance: MI (CH3) AG/GA Fc-like chain, AG domain with Trp 81 back mutated to threonine (domain or fragment)
loss in HD rate against the heterodimer with Trp 81 [4]: 4%

Substance: FcRn extracellular domain (with beta-2-microglobulin) (from UniProt P55899 24-297; P61769 21-119) (receptor)
Kd [5]: 686 nM
Kd (Herceptin IgG (human) [6]): 622 nM
Kd [7]: 543 nM
Kd [8]: 577 nM
Kd [9]: 708 nM

Substance: FcγR1a extracellular domain (from UniProt P12314 16-292) (receptor)
Kd (Herceptin IgG (human) [13]): 0.138 nM

Substance: FcγR2b extracellular domain (from UniProt P31994 43-217) (receptor)
Kd (Herceptin IgG (human) [2]): 4270 nM

Continued, values first:

heterodimer content [1]: 83%
Substance: SEED Fc-like chain, the SEED CH3 domain that has Trp 81 (domain or fragment)

Kd (Herceptin IgG (human) [2]): 2000 nM
Substance: FcγR2a extracellular domain, variant H167 (from UniProt P12318 34-217) (receptor)

heterodimer content [3]: 67%
Substance: KiH (knobs-into-holes) Fc-like chain, first engineered CH3 domain (domain or fragment)

loss in HD rate against the heterodimer with Trp 81 [1]: 20%
Substance: SEED Fc-like chain with Trp 81 back mutated to threonine (domain or fragment)

Kd [10]: 347 nM
Kd (Herceptin IgG (human) [2]): 267 nM
Kd [11]: 238 nM
Kd [12]: 206 nM
Substance: FcγR3a extracellular domain, variant V176 (from UniProt P08637 17-208) (receptor)
